US10941182 (Amgen, dated 2021)
Starred links: 1 amine or outer side, 2 acyl side, 3 side chain; linkers in the order of their positions; H or OH if unused. Non-standard residues stand in square brackets, D forms with d. *: point of attachment. AC4Abu = α-carboxy-4-aminobutyric acid, O=C(C(CCN[*:1])C(=O)[*:3])[*:2]; Oic = O=C(O)[C@@H]1C[C@@H]2CCCC[C@@H]2N1; Phe(4-Cl) = N[C@@H](Cc1ccc(Cl)cc1)C(=O)O; γGlu = O=C(O)[C@H](CCC(=O)[*:2])N[*:1]; 1Nal = N[C@@H](Cc1cccc2ccccc12)C(=O)O; 2Nal = N[C@@H](Cc1ccc2ccccc2c1)C(=O)O; NMeR = CN[C@@H](CCCNC(=N)N)C(=O)O; Tridecanoyl = CCCCCCCCCCCCC(=O)*; Nle = CCCC[C@H](N)C(=O)O; AEEA = NCCOCCOCC(=O)O; βAla = NCCC(=O)O

B1: Apelin polypeptide SEQ ID NO: 425 (peptide)
peptide: Tridecanoyl-[γGlu][AEEA][AEEA]QRP[NMeR]LSHKGP[Nle][βAla][Phe(4-Cl)]-OH
SMILES: CCCCCCCCCCCCC(=O)N[C@@H](CCC(=O)NCCOCCOCC(=O)NCCOCCOCC(=O)N[C@@H](CCC(N)=O)C(=O)N[C@@H](CCCNC(=N)N)C(=O)N1CCC[C@H]1C(=O)N(C)[C@@H](CCCNC(=N)N)C(=O)N[C@@H](CC(C)C)C(=O)N[C@@H](CO)C(=O)N[C@@H](Cc1c[nH]cn1)C(=O)N[C@@H](CCCCN)C(=O)NCC(=O)N1CCC[C@H]1C(=O)N[C@@H](CCCC)C(=O)NCCC(=O)N[C@@H](Cc1ccc(Cl)cc1)C(=O)O)C(=O)O
B2: Apelin polypeptide SEQ ID NO: 424 (peptide)
peptide: Tridecanoyl-[γGlu][AEEA][AEEA]QRP[NMeR]LSH[βAla]GP[Nle]P[Phe(4-Cl)]-OH
SMILES: CCCCCCCCCCCCC(=O)N[C@@H](CCC(=O)NCCOCCOCC(=O)NCCOCCOCC(=O)N[C@@H](CCC(N)=O)C(=O)N[C@@H](CCCNC(=N)N)C(=O)N1CCC[C@H]1C(=O)N(C)[C@@H](CCCNC(=N)N)C(=O)N[C@@H](CC(C)C)C(=O)N[C@@H](CO)C(=O)N[C@@H](Cc1c[nH]cn1)C(=O)NCCC(=O)NCC(=O)N1CCC[C@H]1C(=O)N[C@@H](CCCC)C(=O)N1CCC[C@H]1C(=O)N[C@@H](Cc1ccc(Cl)cc1)C(=O)O)C(=O)O
B3: Apelin polypeptide SEQ ID NO: 449 (peptide)
peptide: Tridecanoyl-[γGlu][AEEA][AEEA]QRP[NMeR]LSH[1Nal]GP[Nle]P[Phe(4-Cl)]-OH
SMILES: CCCCCCCCCCCCC(=O)N[C@@H](CCC(=O)NCCOCCOCC(=O)NCCOCCOCC(=O)N[C@@H](CCC(N)=O)C(=O)N[C@@H](CCCNC(=N)N)C(=O)N1CCC[C@H]1C(=O)N(C)[C@@H](CCCNC(=N)N)C(=O)N[C@@H](CC(C)C)C(=O)N[C@@H](CO)C(=O)N[C@@H](Cc1c[nH]cn1)C(=O)N[C@@H](Cc1cccc2ccccc12)C(=O)NCC(=O)N1CCC[C@H]1C(=O)N[C@@H](CCCC)C(=O)N1CCC[C@H]1C(=O)N[C@@H](Cc1ccc(Cl)cc1)C(=O)O)C(=O)O
B4: Apelin polypeptide SEQ ID NO: 448 (peptide)
peptide: Tridecanoyl-[γGlu][AEEA][AEEA]QRP[NMeR]LSHHGP[Nle]P[Phe(4-Cl)]-OH
SMILES: CCCCCCCCCCCCC(=O)N[C@@H](CCC(=O)NCCOCCOCC(=O)NCCOCCOCC(=O)N[C@@H](CCC(N)=O)C(=O)N[C@@H](CCCNC(=N)N)C(=O)N1CCC[C@H]1C(=O)N(C)[C@@H](CCCNC(=N)N)C(=O)N[C@@H](CC(C)C)C(=O)N[C@@H](CO)C(=O)N[C@@H](Cc1c[nH]cn1)C(=O)N[C@@H](Cc1c[nH]cn1)C(=O)NCC(=O)N1CCC[C@H]1C(=O)N[C@@H](CCCC)C(=O)N1CCC[C@H]1C(=O)N[C@@H](Cc1ccc(Cl)cc1)C(=O)O)C(=O)O
B5: Apelin polypeptide SEQ ID NO: 352 (peptide)
peptide: Tridecanoyl-[γGlu][AEEA][AEEA]QRP[NMeR]LSHKG[Oic][Nle]P[Phe(4-Cl)]-OH
SMILES: CCCCCCCCCCCCC(=O)N[C@@H](CCC(=O)NCCOCCOCC(=O)NCCOCCOCC(=O)N[C@@H](CCC(N)=O)C(=O)N[C@@H](CCCNC(=N)N)C(=O)N1CCC[C@H]1C(=O)N(C)[C@@H](CCCNC(=N)N)C(=O)N[C@@H](CC(C)C)C(=O)N[C@@H](CO)C(=O)N[C@@H](Cc1c[nH]cn1)C(=O)N[C@@H](CCCCN)C(=O)NCC(=O)N1[C@H](C(=O)N[C@@H](CCCC)C(=O)N2CCC[C@H]2C(=O)N[C@@H](Cc2ccc(Cl)cc2)C(=O)O)C[C@@H]2CCCC[C@@H]21)C(=O)O
B6: Apelin polypeptide SEQ ID NO: 470 (peptide)
peptide: Tridecanoyl-[γGlu][AEEA][AEEA]QRP[NMeR]LSHKGP[Nle]P[2Nal]-OH
SMILES: CCCCCCCCCCCCC(=O)N[C@@H](CCC(=O)NCCOCCOCC(=O)NCCOCCOCC(=O)N[C@@H](CCC(N)=O)C(=O)N[C@@H](CCCNC(=N)N)C(=O)N1CCC[C@H]1C(=O)N(C)[C@@H](CCCNC(=N)N)C(=O)N[C@@H](CC(C)C)C(=O)N[C@@H](CO)C(=O)N[C@@H](Cc1c[nH]cn1)C(=O)N[C@@H](CCCCN)C(=O)NCC(=O)N1CCC[C@H]1C(=O)N[C@@H](CCCC)C(=O)N1CCC[C@H]1C(=O)N[C@@H](Cc1ccc2ccccc2c1)C(=O)O)C(=O)O
B7: Apelin polypeptide SEQ ID NO: 403 (peptide)
peptide: Tridecanoyl-[AC4Abu][AEEA][AEEA]QRP[NMeR]LSHKGP[Nle][2Nal]-OH
SMILES: CCCCCCCCCCCCC(=O)NCCC(C(=O)O)C(=O)NCCOCCOCC(=O)NCCOCCOCC(=O)N[C@@H](CCC(N)=O)C(=O)N[C@@H](CCCNC(=N)N)C(=O)N1CCC[C@H]1C(=O)N(C)[C@@H](CCCNC(=N)N)C(=O)N[C@@H](CC(C)C)C(=O)N[C@@H](CO)C(=O)N[C@@H](Cc1c[nH]cn1)C(=O)N[C@@H](CCCCN)C(=O)NCC(=O)N1CCC[C@H]1C(=O)N[C@@H](CCCC)C(=O)N[C@@H](Cc1ccc2ccccc2c1)C(=O)O
B8: Apelin polypeptide SEQ ID NO: 402 (peptide)
peptide: Tridecanoyl-[AC4Abu][AEEA][AEEA]QRP[NMeR]LSHKGP[Nle][Phe(4-Cl)]-OH
SMILES: CCCCCCCCCCCCC(=O)NCCC(C(=O)O)C(=O)NCCOCCOCC(=O)NCCOCCOCC(=O)N[C@@H](CCC(N)=O)C(=O)N[C@@H](CCCNC(=N)N)C(=O)N1CCC[C@H]1C(=O)N(C)[C@@H](CCCNC(=N)N)C(=O)N[C@@H](CC(C)C)C(=O)N[C@@H](CO)C(=O)N[C@@H](Cc1c[nH]cn1)C(=O)N[C@@H](CCCCN)C(=O)NCC(=O)N1CCC[C@H]1C(=O)N[C@@H](CCCC)C(=O)N[C@@H](Cc1ccc(Cl)cc1)C(=O)O

biological target: T1, human APJ receptor (human, UniProt P35414 1-380); test: cell-based or functional assay
T1 sequence (looked up): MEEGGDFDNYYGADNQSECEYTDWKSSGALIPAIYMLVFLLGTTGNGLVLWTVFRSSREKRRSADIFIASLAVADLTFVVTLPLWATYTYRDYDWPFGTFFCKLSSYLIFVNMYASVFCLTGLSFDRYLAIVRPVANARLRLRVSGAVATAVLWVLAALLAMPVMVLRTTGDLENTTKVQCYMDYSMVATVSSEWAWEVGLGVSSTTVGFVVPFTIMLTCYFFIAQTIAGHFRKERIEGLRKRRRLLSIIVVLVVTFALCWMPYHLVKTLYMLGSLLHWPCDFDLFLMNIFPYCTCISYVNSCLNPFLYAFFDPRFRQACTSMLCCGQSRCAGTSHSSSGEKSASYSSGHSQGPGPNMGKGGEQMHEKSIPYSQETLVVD

Binder	EC50 Human APJ Receptor (GTPγS assay) [pM]
XXXQRPRLSHKGPXPF ({TDA}[AC4Abu][Aeea][Aeea]QrP[NMehArg][BLeu]SHKGP[Nle]P[4-Cl-F]{COOH}) [Apelin polypeptide SEQ ID NO: 384]	956
B1	93.7
XXXQRPRLSHKGPXPF ({TDA}[AC4Abu][Aeea][Aeea]QRP[NMeArg]LSHKGP[Nle][aMePro][4-Cl-F]{COOH}) [Apelin polypeptide SEQ ID NO: 401]	81.6
B2	4140
B3	394
B4	134
B5	108
B6	38
B7	2630
B8	100
XXXQRPRLSHKGPXXF ({TDA}[AC4Abu][Aeea][Aeea]QRP[NMeArg]LSHKGP[Nle][Pip][4-Cl-F]{COOH}) [Apelin polypeptide SEQ ID NO: 429]	66.3

biological target: T2, rat APJ receptor (rat, UniProt Q9JHG3 1-377); test: cell-based or functional assay
T2 sequence (looked up): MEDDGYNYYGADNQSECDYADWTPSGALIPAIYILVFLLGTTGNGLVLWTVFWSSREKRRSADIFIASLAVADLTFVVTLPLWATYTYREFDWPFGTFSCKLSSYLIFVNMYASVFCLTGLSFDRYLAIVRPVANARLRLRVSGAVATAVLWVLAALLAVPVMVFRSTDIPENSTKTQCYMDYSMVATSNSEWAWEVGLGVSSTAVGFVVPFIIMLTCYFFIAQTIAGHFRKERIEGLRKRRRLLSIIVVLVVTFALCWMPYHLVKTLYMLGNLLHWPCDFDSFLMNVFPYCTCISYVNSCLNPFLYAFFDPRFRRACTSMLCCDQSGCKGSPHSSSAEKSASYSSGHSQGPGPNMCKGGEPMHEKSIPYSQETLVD

Binder	EC50 Rat APJ Receptor (GTPγS assay) [pM]
XXXQRPRLSHKGPXPF ({TDA}[AC4Abu][Aeea][Aeea]QrP[NMehArg][BLeu]SHKGP[Nle]P[4-Cl-F]{COOH}) [Apelin polypeptide SEQ ID NO: 384]	4350
B1	157
XXXQRPRLSHKGPXPF ({TDA}[AC4Abu][Aeea][Aeea]QRP[NMeArg]LSHKGP[Nle][aMePro][4-Cl-F]{COOH}) [Apelin polypeptide SEQ ID NO: 401]	352
B2	17200
B3	470
B4	306
B5	230
B6	150
B7	8100
B8	246
XXXQRPRLSHKGPXXF ({TDA}[AC4Abu][Aeea][Aeea]QRP[NMeArg]LSHKGP[Nle][Pip][4-Cl-F]{COOH}) [Apelin polypeptide SEQ ID NO: 429]	93.5
